Assay [1] addresses mouse mCherry-JUNO (mouse) (UniProt Q9EQF4). The assay can be described thus: live imaging-based adhesion molecule (LIAM) assay; BHK cells, non-inducible expression (cytomegalovirus promoter); separately transfected cells mixed in equal amounts 4 h after transfection, incubated 20 h, imaged every 6 min for 12 h at 40x, 37 °C, 5% CO2; read-outs: accumulation at the cell interface and translocation to the opposite cell, % of contacting cell pairs.

The target of assay [2] is hamster JUNO (hamster). The assay is described as above.
Assay [3] addresses hamster JUNO (hamster). Nature of the assay: live imaging-based adhesion molecule (LIAM) assay; HEK293T cells expressing IZUMO1 mixed with HEK293T cells expressing JUNO; read-out: accumulation at the interface of the cells, % of contacting cell pairs.
In another assay the target is human JUNO (human) (UniProt A6ND01). Nature of the assay: live imaging-based adhesion molecule (LIAM) assay; BHK cells, non-inducible expression (cytomegalovirus promoter); separately transfected cells mixed in equal amounts 4 h after transfection, incubated 20 h, imaged every 6 min for 12 h at 40x, 37 °C, 5% CO2; read-outs: accumulation at the cell interface and translocation to the opposite cell, % of contacting cell pairs.
Sequence of human JUNO (human) (A6ND01 20-228): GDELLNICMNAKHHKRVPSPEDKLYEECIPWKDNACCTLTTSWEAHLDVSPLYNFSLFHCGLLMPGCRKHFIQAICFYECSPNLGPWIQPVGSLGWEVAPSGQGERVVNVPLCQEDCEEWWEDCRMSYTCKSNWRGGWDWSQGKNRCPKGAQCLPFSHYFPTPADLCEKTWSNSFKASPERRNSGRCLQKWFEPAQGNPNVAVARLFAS

The next assay concerns the target pig JUNO (pig). The assay is described as above.

The results in this text go back to paper PMC9187738.

Sequence of mouse mCherry-JUNO (mouse) (Q9EQF4 20-222): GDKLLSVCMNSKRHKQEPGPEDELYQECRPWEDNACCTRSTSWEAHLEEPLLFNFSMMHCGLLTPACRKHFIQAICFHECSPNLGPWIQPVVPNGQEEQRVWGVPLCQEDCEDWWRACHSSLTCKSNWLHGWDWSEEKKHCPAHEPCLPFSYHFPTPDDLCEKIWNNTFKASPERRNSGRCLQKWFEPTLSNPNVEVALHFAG
Sequence of human IZUMO1 (Q8IYV9 22-350): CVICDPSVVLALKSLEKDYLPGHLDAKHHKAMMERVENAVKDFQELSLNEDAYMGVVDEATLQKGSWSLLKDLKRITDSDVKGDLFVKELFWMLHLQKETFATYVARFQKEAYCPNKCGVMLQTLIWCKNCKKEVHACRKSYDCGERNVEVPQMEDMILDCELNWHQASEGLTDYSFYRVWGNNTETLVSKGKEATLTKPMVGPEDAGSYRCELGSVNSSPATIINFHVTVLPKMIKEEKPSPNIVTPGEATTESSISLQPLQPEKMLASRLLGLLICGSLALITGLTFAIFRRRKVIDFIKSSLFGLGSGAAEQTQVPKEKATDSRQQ

With hamster IZUMO1 (natural protein), in assay [1], the IZUMO1 accumulation (% of contacting cell pairs) was 33% and the JUNO accumulation (% of contacting cell pairs) worked out at 25%. In addition, in the assay with hamster JUNO (hamster) [2], the IZUMO1 accumulation (% of contacting cell pairs) was 77%, the IZUMO1 translocation (% of contacting cell pairs) was 44%, the JUNO accumulation (% of contacting cell pairs) was 16% and the JUNO translocation (% of contacting cell pairs) came to 28%.
For “human IZUMO1 (from UniProt Q8IYV9 22-350) (natural protein)”, in the assay with hamster JUNO (hamster) [3], the IZUMO1 accumulation (% of contacting cell pairs) stood at 9.3% and the JUNO accumulation (% of contacting cell pairs) came out at 2.8%.
As to pig IZUMO1 (natural protein), in the assay with human JUNO (human), the IZUMO1 accumulation (% of contacting cell pairs) was 48%, the IZUMO1 translocation (% of contacting cell pairs) came to 3.2%, the JUNO accumulation (% of contacting cell pairs) amounted to 49% and the JUNO translocation (% of contacting cell pairs) was determined as 32%. For the same substance, the IZUMO1 accumulation (% of contacting cell pairs) with pig JUNO (pig) was 24%. In the assay with hamster JUNO (hamster) [2], the IZUMO1 accumulation (% of contacting cell pairs) came to 13% and the JUNO accumulation (% of contacting cell pairs) was found to be 7.1%.
